In PMC1260013 (BMC Biochemistry, 2005):

Columns and labels:
M. tb ICD-2 = M. tb ICD-2 (Mycobacterium tuberculosis, UniProt O53611); assay: biochemical
[1] = tested on: NC(=O)c1ccc[n+]([C@@H]2O[C@H](COP(=O)(O)OP(=O)(O)OC[C@H]3O[C@@H](n4cnc5c(N)ncnc54)[C@H](OP(=O)(O)O)[C@@H]3O)[C@@H](O)[C@H]2O)c1; assay: purified protein; details: pH 7.5; 25.0 °C; varied: cofactor
[2] = tested on: O=C(O)CC(C(=O)O)C(O)C(=O)O; assay: purified protein; details: pH 7.5; 25.0 °C

Chain of M. tb ICD-2 (O53611 whole entry): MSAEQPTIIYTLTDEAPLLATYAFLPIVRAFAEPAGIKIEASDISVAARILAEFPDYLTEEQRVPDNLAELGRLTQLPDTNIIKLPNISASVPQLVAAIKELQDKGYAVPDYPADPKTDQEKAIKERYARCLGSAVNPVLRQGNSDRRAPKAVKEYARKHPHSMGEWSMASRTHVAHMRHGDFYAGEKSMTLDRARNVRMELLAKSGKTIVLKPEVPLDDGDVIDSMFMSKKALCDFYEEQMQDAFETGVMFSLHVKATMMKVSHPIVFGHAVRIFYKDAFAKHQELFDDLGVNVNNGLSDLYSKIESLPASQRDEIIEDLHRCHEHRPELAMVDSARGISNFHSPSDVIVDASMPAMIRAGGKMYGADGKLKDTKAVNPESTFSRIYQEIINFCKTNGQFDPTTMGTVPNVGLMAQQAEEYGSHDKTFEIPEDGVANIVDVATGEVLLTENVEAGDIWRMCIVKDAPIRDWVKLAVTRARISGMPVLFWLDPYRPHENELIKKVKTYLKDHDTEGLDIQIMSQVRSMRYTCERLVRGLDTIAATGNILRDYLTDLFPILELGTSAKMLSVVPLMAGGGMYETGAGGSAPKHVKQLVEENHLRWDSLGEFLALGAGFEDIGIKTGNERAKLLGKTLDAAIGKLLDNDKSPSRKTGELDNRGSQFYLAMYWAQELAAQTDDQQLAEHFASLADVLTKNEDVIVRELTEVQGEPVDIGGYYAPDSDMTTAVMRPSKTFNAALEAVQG

Molecule	Ki (M. tb ICD-2) [µM]	Km [1] [µM]	Vmax [1] [μM NADPH/min]	Km [2] [µM]	Vmax [2] [μM NADPH/min]
NC(=O)C1=CN([C@@H]2O[C@H](COP(=O)(O)OP(=O)(O)OC[C@H]3O[C@@H](n4cnc5c(N)ncnc54)[C@H](OP(=O)(O)O)[C@@H]3O)[C@@H](O)[C@H]2O)C=CC1 [NADPH]	4.6	–	–	–	–
M. tb ICD-1 (Mycobacterium tuberculosis H37Rv)	–	125 ± 5	400	10 ± 5	380
